The text below walks through data of US20240287172A1 (SCIRHOM, published 2024).

One assay deals with T1, miR2-FL-WT-FLAG (mouse, UniProt Q80WQ6 1-827).
T1 construct: on MEF-DKO cells
T1 sequence: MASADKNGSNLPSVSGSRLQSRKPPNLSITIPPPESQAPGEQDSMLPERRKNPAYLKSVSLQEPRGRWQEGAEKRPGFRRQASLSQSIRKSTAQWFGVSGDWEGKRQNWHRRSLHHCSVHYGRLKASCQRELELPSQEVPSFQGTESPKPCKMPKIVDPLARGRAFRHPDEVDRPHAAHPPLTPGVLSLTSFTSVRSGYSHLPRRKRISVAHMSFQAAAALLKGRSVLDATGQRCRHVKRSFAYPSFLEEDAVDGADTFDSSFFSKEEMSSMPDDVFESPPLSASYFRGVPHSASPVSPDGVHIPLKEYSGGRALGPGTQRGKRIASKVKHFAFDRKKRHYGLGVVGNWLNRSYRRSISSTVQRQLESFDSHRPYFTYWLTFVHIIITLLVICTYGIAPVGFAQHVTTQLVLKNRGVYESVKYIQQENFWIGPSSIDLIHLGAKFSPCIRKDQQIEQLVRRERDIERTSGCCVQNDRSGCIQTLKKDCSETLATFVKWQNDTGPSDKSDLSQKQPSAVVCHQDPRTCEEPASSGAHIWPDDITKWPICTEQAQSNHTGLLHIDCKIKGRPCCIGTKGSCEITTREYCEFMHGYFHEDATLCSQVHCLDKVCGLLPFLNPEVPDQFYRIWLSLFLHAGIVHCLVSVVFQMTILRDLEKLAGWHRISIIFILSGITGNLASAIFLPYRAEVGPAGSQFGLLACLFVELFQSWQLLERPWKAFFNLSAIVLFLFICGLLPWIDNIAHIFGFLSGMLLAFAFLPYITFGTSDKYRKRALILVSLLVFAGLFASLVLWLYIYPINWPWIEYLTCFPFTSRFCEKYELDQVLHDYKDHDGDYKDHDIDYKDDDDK
The assay can be described thus: FACS on MEF-DKO-miR2-FL-WT-FLAG cells.

For the next assay, the target named is T2, miR2-FL-WT-T7 (mouse, UniProt Q80WQ6 1-827).
T2 construct: on MEF-DKO cells
T2 sequence: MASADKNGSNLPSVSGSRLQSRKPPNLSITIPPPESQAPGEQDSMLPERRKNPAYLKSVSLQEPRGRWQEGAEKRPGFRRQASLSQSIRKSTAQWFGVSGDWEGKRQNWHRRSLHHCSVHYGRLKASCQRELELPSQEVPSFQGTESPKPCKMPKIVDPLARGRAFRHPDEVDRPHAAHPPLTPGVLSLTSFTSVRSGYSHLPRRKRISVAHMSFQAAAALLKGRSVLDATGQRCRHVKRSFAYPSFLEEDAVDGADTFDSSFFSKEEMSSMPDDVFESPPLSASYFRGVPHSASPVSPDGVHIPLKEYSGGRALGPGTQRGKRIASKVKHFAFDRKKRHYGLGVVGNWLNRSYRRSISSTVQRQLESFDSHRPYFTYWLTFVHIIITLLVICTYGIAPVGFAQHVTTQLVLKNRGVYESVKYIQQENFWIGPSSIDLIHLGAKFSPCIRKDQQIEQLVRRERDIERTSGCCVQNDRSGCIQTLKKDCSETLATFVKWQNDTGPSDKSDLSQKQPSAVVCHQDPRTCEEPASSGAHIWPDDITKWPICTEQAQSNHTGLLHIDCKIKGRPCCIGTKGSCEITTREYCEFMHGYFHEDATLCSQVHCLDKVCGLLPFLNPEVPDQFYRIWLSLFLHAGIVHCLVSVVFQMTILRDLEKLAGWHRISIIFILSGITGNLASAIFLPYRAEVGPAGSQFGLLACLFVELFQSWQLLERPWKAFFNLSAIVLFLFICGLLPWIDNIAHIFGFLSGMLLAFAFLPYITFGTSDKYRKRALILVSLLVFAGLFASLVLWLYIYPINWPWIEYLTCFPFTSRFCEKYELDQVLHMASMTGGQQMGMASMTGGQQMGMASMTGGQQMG
The assay can be described thus: FACS, MEF-DKO-miR2-FL-WT-T7 cells. The method, then: In brief, immortalized MEF-DKO-EV control cells, MEF-DKO-hiR2-FL-WT-T7 cells and MEF-DKO-miR2-FL-WT-T7 cells were harvested with 10 mM EDTA in PBS, washed and resuspended in FACS buffer (PBS, 3% FBS, 0.05% sodium azide), and seeded in Nunc U-bottom 96-well plates (Thermo Fisher Scientific, USA) at approximately 3×10⁵ cells per well. To pellet cells and remove supernatants, the plates were centrifuged at 1,500 rpm and 4° C. for 3 minutes. For primary staining, cells were resuspended in 100 μl per well of either FACS buffer alone (controls), mouse monoclonal anti-T7 IgG (Merck Millipore, USA) at 3 μg/ml FACS buffer or the purified antibodies 3, 5, 16, 22, 34, 42, 43, 44, 48, and 50 of the invention also at 3 μg/ml FACS buffer and incubated on ice for 1 hour. Afterwards, plates were centrifuged at 1,500 rpm and 4° C. for 3 minutes and washed twice with 200 μl per well of FACS buffer. For secondary staining, cells were spun down and resuspended in 100 μl per well of PE-conjugated goat anti-mouse IgG F(ab′)2 detection fragment (Dianova, Germany) diluted 1:100 in FACS buffer. Protected from light, the cell suspensions were incubated on ice for 1 hour. […] Finally, cells were resuspended in 150 μl per well of FACS buffer and analyzed using a BD Accuri™ C6 Plus flow cytometer (Becton Dickinson, Germany).

B1: antibody 3 (antibody, V domains shown)
VH: QVTLKESGPGILQPSQTLSLTCSFSGFSLTTFAMGIGWVRQPSGKGLEWLAHIWWDGEKYNNPVLKSRLTISKDTSKNQVFLRIANVDTPDTATYYCARISSIYYIIDNWGQGTSVTVSS
VL: DIVLTQSPATLSVTPGHSVSLSCRASQSISNNLHWYQKKSHESPRLLIKYVSQSISGIPSRFSGSGSGTDFTLSINSVETEDFGMYFCQQSYNWPLTFGAGTKLELK
notes: mouse IgG, kappa light chain; also called clone #3; purified antibody 3
B1: the binding result in the assay with miR2-FL-WT-FLAG is listed as “no binding (tested: 3 µg/ml)”.

B2: antibody 48 (antibody, V domains shown)
VH: QVQLQQSGTELVRPGTSVKVSCKASGYAFTNYLIEWVKQRPGQGLEWIGVINPGSGFTKYNEKFKGKATLTADKSSSTVYMHLSSLTSEDSAVYFCARGLYRAMDYWGQGTSVTVSS
VL: DIQMTQSPASQSASLGESVTITCLASQTIATWLAWYQQKPGKSPQLLIYGATTLADGVPSRFSGGGSGTKFSFKISSLQAEDFVSYYCQQLYSTPYTFGGGTKLEIK
notes: mouse IgG, kappa light chain; also called clone #48; purified antibody 48
Consider B2, for which the binding result with miR2-FL-WT-T7 is “no binding (tested: 3 µg/ml)”.
